The text below walks through data of patent US20200024330A1.

Assay [1] addresses HIV-1 Env of isolate 92BR020 (HIV-1). The experiment in a line: cell-based or functional assay.
Assay [2] has as its target HIV-1 Env of isolate 94UG103 (HIV-1). As to the kind of experiment: cell-based or functional assay.
Assay [3] addresses HIV-1 Env of isolate JR-CSF (HIV-1) (UniProt P20871). The experiment in a line: cell-based or functional assay.
The target of assay [4] is HIV-1 Env of isolate MGRM-C-026 (HIV-1). As to the kind of experiment: cell-based or functional assay.
For assay [5], the target named is Env of all HIV-1 pseudoviruses of the cross-clade 162-pseudovirus panel (n = 162). As to the kind of experiment: cell-based or functional assay.
Assay [6] addresses Env of the clade A HIV-1 pseudoviruses of the cross-clade 162-pseudovirus panel (n = 26). As to the kind of experiment: cell-based or functional assay.
Assay [7] addresses Env of the clade AG HIV-1 pseudoviruses of the cross-clade 162-pseudovirus panel (n = 10). As to the kind of experiment: cell-based or functional assay.
Assay [8] addresses Env of the clade B HIV-1 pseudoviruses of the cross-clade 162-pseudovirus panel (n = 31). The experiment in a line: cell-based or functional assay.
Assay [9] deals with Env of the clade C HIV-1 pseudoviruses of the cross-clade 162-pseudovirus panel (n = 27). As to the kind of experiment: cell-based or functional assay.
The target of assay [10] is Env of the clade D HIV-1 pseudoviruses of the cross-clade 162-pseudovirus panel (n = 25). As to the kind of experiment: cell-based or functional assay.
In assay [11] the target is Env of the clade F HIV-1 pseudoviruses of the cross-clade 162-pseudovirus panel (n = 15). As to the kind of experiment: cell-based or functional assay.
Assay [12] concerns the target Env of the clade G HIV-1 pseudoviruses of the cross-clade 162-pseudovirus panel (n = 15). As to the kind of experiment: cell-based or functional assay.
Assay [13] has as its target HIV-1 92BR020 envelope glycoprotein (Env) (HIV-1). As to the kind of experiment: cell-based or functional assay.
The target in assay [14] is HIV-1 92RW020 envelope glycoprotein (Env) (HIV-1). The experiment in a line: cell-based or functional assay.
In assay [15] the target is HIV-1 93IN905 envelope glycoprotein (Env) (HIV-1). As to the kind of experiment: cell-based or functional assay.
Assay [16] concerns the target HIV-1 93UG077 envelope glycoprotein (Env) (HIV-1). As to the kind of experiment: cell-based or functional assay.
Assay [17] concerns the target HIV-1 94UG103 envelope glycoprotein (Env) (HIV-1). The experiment in a line: cell-based or functional assay.
The target in assay [18] is HIV-1 APV13 envelope glycoprotein (Env) (HIV-1). As to the kind of experiment: cell-based or functional assay.
For assay [19], the target named is HIV-1 APV17 envelope glycoprotein (Env) (HIV-1). The experiment in a line: cell-based or functional assay.
Assay [20] addresses HIV-1 APV6 envelope glycoprotein (Env) (HIV-1). As to the kind of experiment: cell-based or functional assay.
Assay [21] addresses HIV-1 Env of isolate 93IN905 (HIV-1). As to the kind of experiment: cell-based or functional assay.
Assay [22] addresses HIV-1 JRCSF envelope glycoprotein (Env) (HIV-1) (UniProt P20871). The experiment in a line: cell-based or functional assay.
The target of assay [23] is HIV-1 JRFL envelope glycoprotein (Env) (HIV-1). The experiment in a line: cell-based or functional assay.
Assay [24] concerns the target HIV-1 MGRM-A-010 envelope glycoprotein (Env) (HIV-1). The experiment in a line: cell-based or functional assay.
Assay [25] concerns the target HIV-1 MGRM-C-026 envelope glycoprotein (Env) (HIV-1). As to the kind of experiment: cell-based or functional assay.
Assay [26] addresses HIV-1 MGRM-C-027 envelope glycoprotein (Env) (HIV-1). The experiment in a line: cell-based or functional assay.
The target of assay [27] is HIV-1 MGRM-C-028 envelope glycoprotein (Env) (HIV-1). As to the kind of experiment: cell-based or functional assay.
The target of assay [28] is HIV-1 NL43 envelope glycoprotein (Env) (HIV-1). The experiment in a line: cell-based or functional assay.
Assay [29] has as its target JR-FL gp120 ΔV1/ΔV2 (HIV-1 (isolate JR-FL)). As to the kind of experiment: ELISA on coated gp120; EC50 by nonlinear regression. For orientation: ELISA stands for enzyme-linked immunosorbent assay.
For assay [30], the target named is JR-FL gp120 ΔV3 (HIV-1 (isolate JR-FL)). The description is as above.
Assay [31] addresses WT JR-FL gp120 (HIV-1 (isolate JR-FL)). Described as above.

B1: 4869_K15 (antibody, V domains shown)
VH: QVHLQESGPGLVTPSETLSLTCTVSNGSVSGRFWSWIRQSPGRGLEWIGYFSDTDRSEYNPSLRSRLTLSVDRSKNQLSLRLKSVTAADSATYYCARAQQGKRIYGIVSFGEFFYYYYMDAWGKGTPVTVSS
VL: SLNPLSLAPGATAKIPCGERSRGSRAVQWYQQKPGQAPTLIIYNNQDRPAGVSERFSGNPDVAIGVTATLTISRVEVGDEADYYCHYWDSRSPISWIFGGGTQLTVL
On to B1, for which the Primary Neutralization Index (B cell culture well 4869 K15) in assay [1] is 3.9; in [2] it was 1.5; in assay [3] it was 2.1; in [4] it was 104.

B2: PGT-136 (antibody, V domains shown)
VH: QLQLQESGPGLVKPSETLSLTCTVSGGSMRGTDWGENDFHYGWIRQSSAKGLEWIGSIHWRGRTTHYKTSFRSRATLSIDTSNNRFSLTFSFVTAADTAVYYCARHKYHDIFRVVPVAGWFDPWGQGLLVTVSS
VL: EIVMTQSPPTLSVSPGETATLSCRASQNVKNNLAWYQLKPGQAPRLLIFDASSRAGGIPDRFSGSGYGTDFTLTVNSVQSEDFGDYFCQQYEEWPRTFGQGTKVDIK
As for B2, the Median IC50 against viruses neutralized with an IC50 <50 µg/ml in assay [5] was found to be 7.81 µg/mL; in assay [6] it was 2.34 µg/mL; in assay [7], 29.1 µg/mL; in assay [8] it was 13.2 µg/mL; in assay [9], 7.52 µg/mL; in assay [10], 0.05 µg/mL. The Median IC50 against viruses neutralized with an IC50 <50 µg/ml worked out at 4.75 µg/mL in assay [11] and 18.9 µg/mL in [12]. Moreover, the IC50 neutralization in assay [13] was over 10 µg/mL; in assay [14] it was 0.738 µg/mL; in assay [15], 0.0135 µg/mL; in assay [16] it was over 10 µg/mL; in assay [17], over 10 µg/mL; in assay [18], over 10 µg/mL. Further, the IC50 neutralization in [19] was over 10 µg/mL; in assay [20], over 10 µg/mL; in [22], over 10 µg/mL; in assay [23], over 10 µg/mL; in [24], over 10 µg/mL; in [25] it was 0.0065 µg/mL. The IC50 neutralization in assay [26], in assay [27] and in assay [28] was over 10 µg/mL throughout. Moreover, the Primary Neutralization Index (B cell culture well 5329 C19) was 5.6 in assay [21], 0.9 in [3] and 6 in [4]. Also, the values for the Primary Neutralization Index (B cell culture well 5366 P21) in assay [21], in assay [3] and in [4] were 5.5, 1.1 and 6.2, respectively. Also, the EC50 (in general, the concentration needed to bring the measured effect to its halfway point) in [29] worked out at 0.3 µg/mL; in assay [30], 0.1 µg/mL; in assay [31], 0.2 µg/mL.
